# From patent US6420518
# Positions of bridges follow the written chain, without caps; N, C: chain ends. Non-standard residues stand in square brackets, D forms with d. No end group written: not given here. 1Nal = N[C@@H](Cc1cccc2ccccc12)C(=O)O; Nle = CCCC[C@H](N)C(=O)O
# T1: IGFBP-1 (UniProt P08833 26-259)
# T1 construct: in kinetics immobilised on a CM chip by EDC/NHS; biotinylated in the phage selection
# T1 sequence (looked up): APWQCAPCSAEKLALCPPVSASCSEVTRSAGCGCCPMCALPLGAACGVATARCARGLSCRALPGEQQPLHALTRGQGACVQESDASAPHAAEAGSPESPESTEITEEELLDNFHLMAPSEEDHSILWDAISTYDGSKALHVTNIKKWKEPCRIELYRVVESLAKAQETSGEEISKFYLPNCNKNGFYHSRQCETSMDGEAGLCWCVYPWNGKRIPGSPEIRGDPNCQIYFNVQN
# B1: (i+8)C (peptide)
# peptide: Ac-RAGPLEWLAEKYFE
# modifications: linker 6-14 via 1,5‑diaminopentane
# notes: also called locked-helix variant of bp1-01
# B2: (i+7)C (peptide)
# peptide: Ac-PLEWLAEKYEG
# modifications: linker 3-10 via 1,5‑diaminopentane
# notes: as for B1
# B3: bp1-625 (peptide)
# peptide: GQQSCAAGPLQWLCEHYFSTYGR
# modifications: disulfide 5-14
# notes: bp1-40 with R2A, K12H and an added C-terminal GlyArg
# B4: bp1-23 (peptide)
# peptide: CRAGPLQ[1Nal]LCEKYF
# modifications: disulfide 1-10
# notes: also called W8(Nal(1)) variant of bp1-16
# B5: (i+7)D (peptide)
# peptide: Ac-RAGPLEWLAEKYEG
# modifications: linker 6-13 via 1,5‑diaminopentane
# notes: as for B1
# B6: (i+7)B (peptide)
# peptide: Ac-LEWLAEKYEG
# modifications: linker 2-9 via 1,5‑diaminopentane
# notes: as for B1
# B7: (i+7)A (peptide)
# peptide: Ac-CRAGPLQELCEKYAE
# modifications: disulfide 1-10 (inferred); linker 8-15 via 1,5‑diaminopentane
# notes: W8 and G15 replaced by the cross-linking Glu residues, F14 replaced by Ala; also called locked-helix variant of bp1-01
# B8: (i+8)B (peptide)
# peptide: Ac-RPLEWLAEKYFE
# modifications: linker 4-12 via 1,5‑diaminopentane
# notes: as for B1
# Experiments:
# [1] = target: T1, IGFBP-1; test: BIAcore inhibition of the interaction of IGFBP-1 with IGF-1
# Experimental: Peptides were assayed in a BIAcore1 assay as described in WO 98/45427, supra.
# [2] = target: T1, IGFBP-1; test: BIAcore inhibition of the interaction of IGFBP-1 with IGF-1; reference peptide
# [3] = target: T1, IGFBP-1; test: BIAcore inhibition assay, 9-10 nM IGFBP-1, immobilized IGF-1
# [4] = target: T1, IGFBP-1; test: ELISA or BIAcore inhibition of IGFBP-1 binding to IGF-I; reference peptide
# [5] = target: T1, IGFBP-1; test: BIAcore inhibition of IGFBP-1 binding to IGF-I
# [6] = target: T1, IGFBP-1; test: ELISA inhibition of IGFBP-1 binding to IGF-I
Binder,Fold potency reduction vs bp1-01 [1],Fold potency reduction IC50(mut)/IC50(bp1-16) [6],also measured
B1,5.9 fold,,
CRAGPLQWLCEKYFG (disulfide 1-10) [bp1-01],,,Fold potency reduction IC50(bp1-01)/IC50(mut) [2]: 1 fold
B2,20 fold,,
B3,,,fold improved potency over bp1-01 [3]: ~20 fold
"CRAGPLQWLCEKYF (disulfide 1-10, Synthetic peptide) [bp1-16]",,,Fold potency reduction IC50(mut)/IC50(bp1-16) [4]: 1 fold
"CRAGPLQRLCEKYF (disulfide 1-10, also called W8R variant of bp1-16) [bp1-22]",,,Fold potency reduction IC50(mut)/IC50(bp1-16) [5]: 3.3 fold
"CRAAPLQWLCEKYF (disulfide 1-10, also called G4A variant of bp1-16) [bp1-29]",,50 fold,
"CRAGPLQWRCEKYF (disulfide 1-10, also called L9R variant of bp1-16) [bp1-26]",,> 570 fold,
"CRAGALQWLCEKYF (disulfide 1-10, also called P5A variant of bp1-16) [bp1-30]",,1.5 fold,
"CRAGPRQWLCEKYF (disulfide 1-10, also called L6R variant of bp1-16) [bp1-32]",,> 1000 fold,
"CRAGRLQWLCEKYF (disulfide 1-10, also called P5R variant of bp1-16) [bp1-31]",,2 fold,
"CRAGPLQHLCEKYF (disulfide 1-10, also called W8H variant of bp1-16) [bp1-24]",,7.5 fold,
"CRAGNLQWLCEKYF (disulfide 1-10, also called P5N variant of bp1-16) [bp1-34]",,3.1 fold,
B4,,,Fold potency reduction IC50(mut)/IC50(bp1-16) [5]: 4.8 fold
"CRAGPLQW[Nle]CEKYF (disulfide 1-10, also called L9(Nle) variant of bp1-16) [bp1-37]",,1.7 fold,
B5,7.7 fold,,
B6,> 360 fold,,
"CRAGP[Nle]QWLCEKYF (disulfide 1-10, also called L6(Nle) variant of bp1-16) [bp1-36]",,6.9 fold,
B7,40 fold,,
B8,7.7 fold,,
